Assay results: paper PMC3185027, “Structural and functional roles of deamidation of N146 and/or truncation of NH2- or COOH-termini in human αB-crystallin” (Molecular Vision, 2011)

Target: the molecule itself
Test: SEC-MALS; HPLC-coupled multi-angle laser light scattering (Wyatt), 18 angles; samples in 50 mM sodium phosphate pH 7.8, filtered through 0.22 μm; absolute molar mass of homomers

B1: wild-type (WT) αB-crystallin (natural protein, human, UniProt P02511 1-175, looked up)
chain: MDIAIHHPWIRRPFFPFHSPSRLFDQFFGEHLLESDLFPTSTSLSPFYLRPPSFLRAPSWFDTGLSEMRLEKDRFSVNLDVKHFSPEELKVKVLGDVIEVHGKHEERQDEHGFISREFHRKYRIPADVDPLTITSSLSSDGVLTVNGPRKQVSGPERTIPITREEKPAVTAAPKK
notes: human αB-crystallin, full-length protein containing all residues from 1 to 175; Cloned in pET 100 Directional TOPO; also called His-tagged WT αB-crystallin; not shown: His6, N-terminal, kept
binding result: binds

B2: αB N146D (deamidated αB-crystallin mutant) (natural protein, human, UniProt P02511 1-175, looked up)
chain: MDIAIHHPWIRRPFFPFHSPSRLFDQFFGEHLLESDLFPTSTSLSPFYLRPPSFLRAPSWFDTGLSEMRLEKDRFSVNLDVKHFSPEELKVKVLGDVIEVHGKHEERQDEHGFISREFHRKYRIPADVDPLTITSSLSSDGVLTVDGPRKQVSGPERTIPITREEKPAVTAAPKK
notes: human αB-crystallin, residues 1-175, Asn 146 changed to Asp to mimic deamidation; Cloned in pET 100 Directional TOPO; not shown: His6, N-terminal, kept
binding result: binds

B3: αB-CT (COOH-terminal extension deleted αB-crystallin) (domain or fragment, human, UniProt P02511 1-150, looked up)
chain: MDIAIHHPWIRRPFFPFHSPSRLFDQFFGEHLLESDLFPTSTSLSPFYLRPPSFLRAPSWFDTGLSEMRLEKDRFSVNLDVKHFSPEELKVKVLGDVIEVHGKHEERQDEHGFISREFHRKYRIPADVDPLTITSSLSSDGVLTVNGPRK
notes: human αB-crystallin lacking the COOH-terminal extension (residues 151-175); containing residues 1-150; Cloned in pET 100 Directional TOPO; also called COOH-terminally truncated αB; not shown: His6, N-terminal, kept
binding result: binds
